The record followed here is patent US20210147549A1.

The target in experiment [1] is FcγRIIIa on effector cells (Jurkat/FcγRIIIa cells, NK cells) (UniProt P08637). Description: cell-based or functional assay.
Experiment [2] addresses human recombinant CD64 (Fc gamma receptor I) (human) (UniProt P12314). The experiment can be described thus: SPR (Biacore T200), construct captured on Protein A, soluble CD64 as analyte.
Experiment [3] concerns the target FcγRIIIa V158 on cells (TR-FRET assay) (UniProt P08637). The experiment can be described thus: TR-FRET competition (CisBio) on cells bearing labeled receptor, vs labeled competitor antibody. On the technique in general: Time-resolved FRET reads energy transfer from a long-lived donor to a nearby acceptor.
Experiment [4] concerns the target FcγRIIa H131 (CD32a) on cells (human) (UniProt P12318). The experiment is described as above.
The target in experiment [5] is FcγRIIb on cells (TR-FRET assay) (UniProt P31994). The description is as above.
Sequence of FcγRIIb on cells (TR-FRET assay) (P31994 43-310 limits assumed): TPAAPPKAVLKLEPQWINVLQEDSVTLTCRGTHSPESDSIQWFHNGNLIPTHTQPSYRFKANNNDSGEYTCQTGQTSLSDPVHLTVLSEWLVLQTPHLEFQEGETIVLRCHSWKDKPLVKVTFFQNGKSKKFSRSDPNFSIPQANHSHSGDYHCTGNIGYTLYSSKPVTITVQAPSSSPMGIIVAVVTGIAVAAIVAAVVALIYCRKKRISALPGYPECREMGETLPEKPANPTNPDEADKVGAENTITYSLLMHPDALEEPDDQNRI

Sequence of FcγRIIIa on effector cells (Jurkat/FcγRIIIa cells, NK cells) (P08637 17-254): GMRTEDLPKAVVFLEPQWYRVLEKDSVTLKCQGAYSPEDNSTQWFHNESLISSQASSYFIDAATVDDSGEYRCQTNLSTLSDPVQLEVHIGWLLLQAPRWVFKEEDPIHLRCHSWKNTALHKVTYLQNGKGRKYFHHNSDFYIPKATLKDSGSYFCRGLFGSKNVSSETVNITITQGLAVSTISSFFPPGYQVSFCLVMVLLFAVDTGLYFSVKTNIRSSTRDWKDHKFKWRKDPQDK
Sequence of human recombinant CD64 (Fc gamma receptor I) (human) (P12314 16-288 limits assumed): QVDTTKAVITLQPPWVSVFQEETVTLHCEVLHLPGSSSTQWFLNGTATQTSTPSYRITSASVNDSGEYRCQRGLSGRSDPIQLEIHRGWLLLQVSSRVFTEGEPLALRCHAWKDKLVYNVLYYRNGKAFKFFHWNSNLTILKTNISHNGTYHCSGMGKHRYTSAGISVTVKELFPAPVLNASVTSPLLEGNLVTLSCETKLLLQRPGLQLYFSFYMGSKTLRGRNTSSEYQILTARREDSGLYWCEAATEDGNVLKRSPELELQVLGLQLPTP
Sequence of FcγRIIa H131 (CD32a) on cells (human) (P12318 34-317): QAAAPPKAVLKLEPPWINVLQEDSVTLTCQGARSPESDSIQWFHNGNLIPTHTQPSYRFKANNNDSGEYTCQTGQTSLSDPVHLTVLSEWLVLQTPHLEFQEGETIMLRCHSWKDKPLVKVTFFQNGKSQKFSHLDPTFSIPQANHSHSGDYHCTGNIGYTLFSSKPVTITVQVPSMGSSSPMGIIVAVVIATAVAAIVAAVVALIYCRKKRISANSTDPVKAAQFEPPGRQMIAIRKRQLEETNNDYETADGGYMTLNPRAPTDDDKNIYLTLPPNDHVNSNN
Sequence of FcγRIIIa V158 on cells (TR-FRET assay) (P08637 17-254 F176V limits assumed): as the sequence (P08637 17-254) above, with F160V counted along it

The substance “avelumab anti-PD-L1 monoclonal antibody, afucosylated” returned an EC50 (nM), Mean; ADCC in KILR-A549 cells with NK cells in experiment [1] of 0.0054 nM.
As to “avelumab anti-PD-L1 monoclonal antibody, fucosylated (S1A-AA-Ave-001, generated in-house)”, the EC50 (nM), Mean; FcyRIIIa signaling in an ADCC reporter assay in experiment [1] was 0.049 nM. Besides, in experiment [2], the CD64 Valency by SPR was 1.3.
The term IC50 denotes the point on the concentration scale where inhibition reaches its midpoint. A higher IC50 goes with a need for much substance. With “anti-CD20 monoclonal antibody with the CDRs of Gazyva (obinutuzumab)”, the CD64 Valency by SPR in experiment [2] amounted to 1.5. Also, the IC50 is 428 nM in experiment [3], 1270 nM in experiment [4] and 3290 nM in experiment [5].
